Results taken from patent publication US20230372522A1 (KUNMING SINOWAY NATURAL PHARMACEUTICALS, published 2023).

B1: Recombinant immunotoxin VH ver 1 + VL ver 4 (H1L4 by the HmLn naming of paragraph 88) (other)
VL: MDIQMTQSPSTLSASVGDRVTITCRASQDISNYLNWFQQRPGQSPRLLIYYTSILHSGVPSRFSGSGSGTDYTLTISSLQPEDFATYYCQQGNTLPWTFGCGTKVEIK
chain: MEVQLVESGGGLVKPGGSLRLSCAASGFAFSIYDMSWVRQAPGKCLEWVAYISSGGGTTYYPDSVKGRFTISRENAKNSLYLQMNSLKSEDTAMYYCARHSGYGTHWGVLFAYWGQGTMVTVSSKASGGPEGGSLAALTAHQACHLPLETFTRHRQPRGWEQLEQCGYPVQRLVALYLAARLSWNQVDQVIRNALASPGSGGDLGEAIREQPEQARLALTLAAAESERFVRQGTGNDEAGAANGPADSGDALLERNYPTGAEFLGDGGDVSFSTRGTQNWTVERLLQAHRQLEERGYVFVGYHGTFLEAAQSIVFGGVRARSQDLDAIWRGFYIAGDPALAYGYAQDQEPDARGRIRNGALLRVYVPRSSLPGFYRTSLTLAAPEAAGEVERLIGHPLPLRLDAITGPEEEGGRLETILGWPLAERTVVIPSAIPTDPRNVGGDLDPSSIPDKEQAISALPDYASQPGKPPREDLK
notes: dsFv-PE38 heterodimer
B2: Recombinant immunotoxin VH ver 2 + HA22 VL (other)
VL: MDIQMTQTTSSLSASLGDRVTISCRASQDISNYLNWYQQKPDGTVKLLIYYTSILHSGVPSRFSGSGSGTDYSLTISNLEQEDFATYFCQQGNTLPWTFGCGTKLEIK
chain: MEVQLVESGGGLVKPGGSLRLSCAASGFAFSIYDMSWVRQTPEKCLEWVAYISSGGGTTYYPDSVKGRFTISRENAKNSLYLQMNSLKSEDTAMYYCARHSGYGTHWGVLFAYWGQGTMVTVSSKASGGPEGGSLAALTAHQACHLPLETFTRHRQPRGWEQLEQCGYPVQRLVALYLAARLSWNQVDQVIRNALASPGSGGDLGEAIREQPEQARLALTLAAAESERFVRQGTGNDEAGAANGPADSGDALLERNYPTGAEFLGDGGDVSFSTRGTQNWTVERLLQAHRQLEERGYVFVGYHGTFLEAAQSIVFGGVRARSQDLDAIWRGFYIAGDPALAYGYAQDQEPDARGRIRNGALLRVYVPRSSLPGFYRTSLTLAAPEAAGEVERLIGHPLPLRLDAITGPEEEGGRLETILGWPLAERTVVIPSAIPTDPRNVGGDLDPSSIPDKEQAISALPDYASQPGKPPREDLK
notes: dsFv-PE38 heterodimer
B3: HA22 (moxetumomab pasudotox; HA22 VH-PE38 + HA22 VL), made in-house (other)
VL: MDIQMTQTTSSLSASLGDRVTISCRASQDISNYLNWYQQKPDGTVKLLIYYTSILHSGVPSRFSGSGSGTDYSLTISNLEQEDFATYFCQQGNTLPWTFGCGTKLEIK
chain: MEVQLVESGGGLVKPGGSLKLSCAASGFAFSIYDMSWVRQTPEKCLEWVAYISSGGGTTYYPDTVKGRFTISRDNAKNTLYLQMSSLKSEDTAMYYCARHSGYGTHWGVLFAYWGQGTLVTVSAKASGGPEGGSLAALTAHQACHLPLETFTRHRQPRGWEQLEQCGYPVQRLVALYLAARLSWNQVDQVIRNALASPGSGGDLGEAIREQPEQARLALTLAAAESERFVRQGTGNDEAGAANGPADSGDALLERNYPTGAEFLGDGGDVSFSTRGTQNWTVERLLQAHRQLEERGYVFVGYHGTFLEAAQSIVFGGVRARSQDLDAIWRGFYIAGDPALAYGYAQDQEPDARGRIRNGALLRVYVPRSSLPGFYRTSLTLAAPEAAGEVERLIGHPLPLRLDAITGPEEEGGRLETILGWPLAERTVVIPSAIPTDPRNVGGDLDPSSIPDKEQAISALPDYASQPGKPPREDLK
notes: also called CAT-8015; HA22 VH / HA22 VL
B4: Recombinant immunotoxin VH ver 1 + VL ver 3 (H1L3 by the HmLn naming of paragraph 88) (other)
VL: MDIQMTQSPSTLSASVGDRVTITCRASQDISNYLNWFQQRPGQSPRRLIYYTSILHSGVPSRFSGSGSGTDYTLTISSLQPEDFATYYCQQGNTLPWTFGCGTKVEIK
chain: MEVQLVESGGGLVKPGGSLRLSCAASGFAFSIYDMSWVRQAPGKCLEWVAYISSGGGTTYYPDSVKGRFTISRENAKNSLYLQMNSLKSEDTAMYYCARHSGYGTHWGVLFAYWGQGTMVTVSSKASGGPEGGSLAALTAHQACHLPLETFTRHRQPRGWEQLEQCGYPVQRLVALYLAARLSWNQVDQVIRNALASPGSGGDLGEAIREQPEQARLALTLAAAESERFVRQGTGNDEAGAANGPADSGDALLERNYPTGAEFLGDGGDVSFSTRGTQNWTVERLLQAHRQLEERGYVFVGYHGTFLEAAQSIVFGGVRARSQDLDAIWRGFYIAGDPALAYGYAQDQEPDARGRIRNGALLRVYVPRSSLPGFYRTSLTLAAPEAAGEVERLIGHPLPLRLDAITGPEEEGGRLETILGWPLAERTVVIPSAIPTDPRNVGGDLDPSSIPDKEQAISALPDYASQPGKPPREDLK
B5: Recombinant immunotoxin VH ver 4 + VL ver 4 (H4L4 by the HmLn naming of paragraph 88) (other)
VL: MDIQMTQSPSTLSASVGDRVTITCRASQDISNYLNWFQQRPGQSPRLLIYYTSILHSGVPSRFSGSGSGTDYTLTISSLQPEDFATYYCQQGNTLPWTFGCGTKVEIK
chain: MEVQLVESGGGLVKPGGSLRLSCAASGFAFSIYDMSWIRQAPGKCLEWVAYISSGGGTTYYPGSVKGRFTISRENAKNSLYLQMNSLRAGDTAVYYCARHSGYGTHWGVLFAYWGQGTMVTVSSKASGGPEGGSLAALTAHQACHLPLETFTRHRQPRGWEQLEQCGYPVQRLVALYLAARLSWNQVDQVIRNALASPGSGGDLGEAIREQPEQARLALTLAAAESERFVRQGTGNDEAGAANGPADSGDALLERNYPTGAEFLGDGGDVSFSTRGTQNWTVERLLQAHRQLEERGYVFVGYHGTFLEAAQSIVFGGVRARSQDLDAIWRGFYIAGDPALAYGYAQDQEPDARGRIRNGALLRVYVPRSSLPGFYRTSLTLAAPEAAGEVERLIGHPLPLRLDAITGPEEEGGRLETILGWPLAERTVVIPSAIPTDPRNVGGDLDPSSIPDKEQAISALPDYASQPGKPPREDLK
notes: dsFv-PE38 heterodimer; The fusion entry is used here
B6: H2L2 humanized anti-CD22 recombinant immunotoxin (VH ver 2 + VL ver 2) (other)
VL: MDIQMTQSTSTLSASVGDRVTITCRASQDISNYLNWYQQRPDGSVKLLIYYTSILHSGVPSRFSGSGSGTDYTLTISSLQDEDFATYFCQQGNTLPWTFGCGTKVEIK
chain: MEVQLVESGGGLVKPGGSLRLSCAASGFAFSIYDMSWVRQTPEKCLEWVAYISSGGGTTYYPDSVKGRFTISRENAKNSLYLQMNSLKSEDTAMYYCARHSGYGTHWGVLFAYWGQGTMVTVSSKASGGPEGGSLAALTAHQACHLPLETFTRHRQPRGWEQLEQCGYPVQRLVALYLAARLSWNQVDQVIRNALASPGSGGDLGEAIREQPEQARLALTLAAAESERFVRQGTGNDEAGAANGPADSGDALLERNYPTGAEFLGDGGDVSFSTRGTQNWTVERLLQAHRQLEERGYVFVGYHGTFLEAAQSIVFGGVRARSQDLDAIWRGFYIAGDPALAYGYAQDQEPDARGRIRNGALLRVYVPRSSLPGFYRTSLTLAAPEAAGEVERLIGHPLPLRLDAITGPEEEGGRLETILGWPLAERTVVIPSAIPTDPRNVGGDLDPSSIPDKEQAISALPDYASQPGKPPREDLK
notes: dsFv-PE38 heterodimer
B7: H1L2 humanized anti-CD22 recombinant immunotoxin (VH ver 1 + VL ver 2) (other)
VL: MDIQMTQSTSTLSASVGDRVTITCRASQDISNYLNWYQQRPDGSVKLLIYYTSILHSGVPSRFSGSGSGTDYTLTISSLQDEDFATYFCQQGNTLPWTFGCGTKVEIK
chain: MEVQLVESGGGLVKPGGSLRLSCAASGFAFSIYDMSWVRQAPGKCLEWVAYISSGGGTTYYPDSVKGRFTISRENAKNSLYLQMNSLKSEDTAMYYCARHSGYGTHWGVLFAYWGQGTMVTVSSKASGGPEGGSLAALTAHQACHLPLETFTRHRQPRGWEQLEQCGYPVQRLVALYLAARLSWNQVDQVIRNALASPGSGGDLGEAIREQPEQARLALTLAAAESERFVRQGTGNDEAGAANGPADSGDALLERNYPTGAEFLGDGGDVSFSTRGTQNWTVERLLQAHRQLEERGYVFVGYHGTFLEAAQSIVFGGVRARSQDLDAIWRGFYIAGDPALAYGYAQDQEPDARGRIRNGALLRVYVPRSSLPGFYRTSLTLAAPEAAGEVERLIGHPLPLRLDAITGPEEEGGRLETILGWPLAERTVVIPSAIPTDPRNVGGDLDPSSIPDKEQAISALPDYASQPGKPPREDLK
notes: dsFv-PE38 heterodimer, VH and VL linked by a disulfide bond
B8: Recombinant immunotoxin VH ver 5 + VL ver 4 (H5L4 by the HmLn naming of paragraph 88) (other)
VL: MDIQMTQSPSTLSASVGDRVTITCRASQDISNYLNWFQQRPGQSPRLLIYYTSILHSGVPSRFSGSGSGTDYTLTISSLQPEDFATYYCQQGNTLPWTFGCGTKVEIK
chain: MEVQLVESGGGLVKPGGSLRLSCAASGFAFSIYDMSWIRQAPGKCLEWVAYISSGGGTTYYPGSVKGRFTISRENAKNSLYLQMNSLRSEDTAVYYCARHSGYGTHWGVLFAYWGQGTMVTVSSKASGGPEGGSLAALTAHQACHLPLETFTRHRQPRGWEQLEQCGYPVQRLVALYLAARLSWNQVDQVIRNALASPGSGGDLGEAIREQPEQARLALTLAAAESERFVRQGTGNDEAGAANGPADSGDALLERNYPTGAEFLGDGGDVSFSTRGTQNWTVERLLQAHRQLEERGYVFVGYHGTFLEAAQSIVFGGVRARSQDLDAIWRGFYIAGDPALAYGYAQDQEPDARGRIRNGALLRVYVPRSSLPGFYRTSLTLAAPEAAGEVERLIGHPLPLRLDAITGPEEEGGRLETILGWPLAERTVVIPSAIPTDPRNVGGDLDPSSIPDKEQAISALPDYASQPGKPPREDLK
notes: dsFv-PE38 heterodimer

What was measured:
[1] = target: T1, recombinant human Siglec-2/CD22 Fc chimera protein (R&D systems, Cat #1968-SL) (human, UniProt P20273 20-687); assay: ELISA, immobilized human CD22 Fc chimera
T1 construct: Bought reagent, immobilized antigen in the ELISA; Fc part of the bought chimera not given

[2] = target: T2, CD22 on Daudi cells (Daudi cell line expressing a high level of CD22) (UniProt P20273 20-847, limits assumed); assay: cell-based or functional assay
[3] = target: T1, recombinant human Siglec-2/CD22 Fc …; assay: ELISA, immobilized human CD22 Fc chimera; remark: listed apart in the source
[4] = target: T2, CD22 on Daudi cells (Daudi cell line …); assay: cell-based or functional assay; remark: listed apart in the source
[5] = target: T1, recombinant human Siglec-2/CD22 Fc …; assay: ELISA, immobilized human CD22 Fc chimera, detection with anti-Pseudomonas exotoxin A antibody
biotinylated CD22 = biotinylated CD22 (UniProt P20273 20-687, limits assumed, biotinylated (site not stated)); assay: Octet (BLI), biotinylated CD22 on streptavidin biosensors

Row | Binder | EC50, normalized against HA22 [1] | In Vitro potency assay (EC50, normalized against HA22) [2] | EC50 [3] [pM] | In Vitro potency assay (pM): EC50 of Daudi cell death, CCK-8 [4] [pM] | EC50 [5] [pM] | Kd (biotinylated CD22) [pM]
1 | B1 | 1.17 fold of HA22 | 4.12 fold of HA22 | 200 | 13.8 | – | –
2 | B2 | 0.89 fold of HA22 | – | 640 | – | – | –
3 | B3 | 1 fold of HA22 | 1 fold of HA22 | 470 | 2.72 | 470 | 4080 to 5810
4 | B4 | – | 4.59 fold of HA22 | – | 57.2 | – | –
5 | B5 | 39.1 fold of HA22 | – | 6730 | – | – | –
6 | B6 | 1.1 fold of HA22 | 1.23 fold of HA22 | 560 | 4.26 | 560 | 5010 to 7020
7 | B7 | 0.81 fold of HA22 | 1.32 fold of HA22 | 540 | 4.58 | 540 | 4660 to 7210
8 | B8 | 12.5 fold of HA22 | 10.7 fold of HA22 | 2150 | 34.9 | – | –
